Assay results: US7122343 (WARF WISCONSIN ALUMNI RESEARCH FOUNDATION, dated 2006)

Molecular target: T1, hMre11-hRad50 protein complex (human, UniProt P49959 2-708; Q92878 1-1312)
T1 construct: Endogenous complex from human cells; It also holds p95 and a protein of about 400 kDa; also called hMre11/hRad50 complex; hRad50/hMre11 complex
Assay: co-immunoprecipitation

T1 sequence (P49959 2-708 limits assumed, chain 1 of 2): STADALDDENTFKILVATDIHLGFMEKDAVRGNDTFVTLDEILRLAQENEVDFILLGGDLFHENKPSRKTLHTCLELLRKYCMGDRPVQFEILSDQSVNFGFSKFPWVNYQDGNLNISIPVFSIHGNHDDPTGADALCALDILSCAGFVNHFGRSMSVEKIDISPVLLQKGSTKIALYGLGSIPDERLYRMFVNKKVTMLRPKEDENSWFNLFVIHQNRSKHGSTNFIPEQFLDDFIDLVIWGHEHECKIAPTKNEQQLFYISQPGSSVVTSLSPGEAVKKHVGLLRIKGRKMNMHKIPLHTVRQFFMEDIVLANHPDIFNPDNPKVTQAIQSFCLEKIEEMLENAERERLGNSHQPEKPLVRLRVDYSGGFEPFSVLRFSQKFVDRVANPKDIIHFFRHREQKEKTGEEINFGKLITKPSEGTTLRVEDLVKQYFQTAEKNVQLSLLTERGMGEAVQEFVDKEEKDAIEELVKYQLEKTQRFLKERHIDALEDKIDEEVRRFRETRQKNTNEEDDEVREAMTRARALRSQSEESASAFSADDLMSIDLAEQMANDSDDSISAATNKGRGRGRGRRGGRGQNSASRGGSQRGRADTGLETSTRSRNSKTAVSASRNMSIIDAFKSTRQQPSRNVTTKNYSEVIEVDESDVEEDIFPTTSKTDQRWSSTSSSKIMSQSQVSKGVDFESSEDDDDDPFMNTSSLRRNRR
T1 sequence (Q92878 whole entry, chain 2 of 2): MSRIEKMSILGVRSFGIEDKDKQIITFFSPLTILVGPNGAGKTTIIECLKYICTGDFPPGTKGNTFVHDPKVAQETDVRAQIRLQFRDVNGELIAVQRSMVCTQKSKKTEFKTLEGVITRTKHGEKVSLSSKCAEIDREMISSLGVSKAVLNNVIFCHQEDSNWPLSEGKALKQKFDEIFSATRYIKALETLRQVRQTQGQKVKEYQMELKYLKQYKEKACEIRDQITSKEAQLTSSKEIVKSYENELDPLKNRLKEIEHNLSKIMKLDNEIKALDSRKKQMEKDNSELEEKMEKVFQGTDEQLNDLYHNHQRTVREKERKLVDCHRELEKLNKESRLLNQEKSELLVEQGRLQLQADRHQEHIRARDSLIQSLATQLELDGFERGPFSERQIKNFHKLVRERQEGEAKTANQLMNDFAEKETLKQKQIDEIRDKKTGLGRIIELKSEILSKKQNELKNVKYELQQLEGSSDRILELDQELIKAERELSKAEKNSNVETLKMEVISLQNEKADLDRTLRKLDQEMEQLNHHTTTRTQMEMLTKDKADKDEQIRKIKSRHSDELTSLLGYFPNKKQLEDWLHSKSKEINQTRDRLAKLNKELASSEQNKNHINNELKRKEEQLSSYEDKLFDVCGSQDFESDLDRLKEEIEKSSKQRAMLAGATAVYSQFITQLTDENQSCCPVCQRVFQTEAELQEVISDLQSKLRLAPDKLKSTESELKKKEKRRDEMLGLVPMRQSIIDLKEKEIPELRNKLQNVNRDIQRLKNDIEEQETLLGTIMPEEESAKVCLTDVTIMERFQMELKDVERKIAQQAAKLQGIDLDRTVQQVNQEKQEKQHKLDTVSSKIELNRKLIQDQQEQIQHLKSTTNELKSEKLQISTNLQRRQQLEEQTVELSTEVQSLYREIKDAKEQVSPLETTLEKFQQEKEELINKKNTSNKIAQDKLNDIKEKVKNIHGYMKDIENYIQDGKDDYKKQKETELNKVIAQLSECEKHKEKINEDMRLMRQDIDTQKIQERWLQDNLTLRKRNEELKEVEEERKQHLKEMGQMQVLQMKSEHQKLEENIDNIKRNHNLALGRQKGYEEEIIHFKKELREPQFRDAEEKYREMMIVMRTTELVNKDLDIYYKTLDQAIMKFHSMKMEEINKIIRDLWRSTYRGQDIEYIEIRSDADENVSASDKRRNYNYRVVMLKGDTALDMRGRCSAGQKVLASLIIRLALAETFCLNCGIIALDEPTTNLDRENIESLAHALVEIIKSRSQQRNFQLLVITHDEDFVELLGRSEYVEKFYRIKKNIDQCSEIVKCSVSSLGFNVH

B1: hRad51 (other, human, UniProt Q06609 2-339, looked up)
chain: AMQMQLEANADTSVEEESFGPQPISRLEQCGINANDVKKLEEAGFHTVEAVAYAPKKELINIKGISEAKADKILAEAAKLVPMGFTTATEFHQRRSEIIQITTGSKELDKLLQGGIETGSITEMFGEFRTGKTQICHTLAVTCQLPIDRGGGEGKAMYIDTEGTFRPERLLAVAERYGLSGSDVLDNVAYARAFNTDHQTQLLYQASAMMVESRYALLIVDSATALYRTDYSGRGELSARQMHLARFLRMLLRLADEFGVAVVITNQVVAQVDGAAMFAADPKKPIGGNIIAHASTTRLYLRKGRGETRICKIYDSPCLPEAEAMFAINADGVGDAKD
notes: also called human Rad51 homolog
binding result: no binding
